B1: Modified protein 1: 3M-GGBP (SEQ ID NO:3) with substitution N39I (protein)
chain: ADTRIGVTIYKYDDNFMSVVRKAIEQDAKAAPDVQLLMIDSQNDQSKQNDQIDVLLAKGVKALAINLVDPAAAGTVIEKARGQNVPVVFFNKEPSRKALDSYDKAYYVGTDSKESGIIQGDLIAKHWAANQGWDLNKDGQIQFVLLKGCPGHPDAEARTTYVIKELNDKGIKTEQLQLDTAMWDTAQAKDKMDAWLSGPNANKIEVVIANNDRMAMGAVEALKAHNKSSIPVFGVDASPEALALVKSGALAGTVLNDANNQAKATFDLAKNLADGKGAADGTNWKIDNKVVRVPYVGVDKDNLAEFSKK
B2: Modified protein 12: 3M-GGBP (SEQ ID NO:3) with substitutions N283D, W284L (protein)
chain: ADTRIGVTIYKYDDNFMSVVRKAIEQDAKAAPDVQLLMNDSQNDQSKQNDQIDVLLAKGVKALAINLVDPAAAGTVIEKARGQNVPVVFFNKEPSRKALDSYDKAYYVGTDSKESGIIQGDLIAKHWAANQGWDLNKDGQIQFVLLKGCPGHPDAEARTTYVIKELNDKGIKTEQLQLDTAMWDTAQAKDKMDAWLSGPNANKIEVVIANNDRMAMGAVEALKAHNKSSIPVFGVDASPEALALVKSGALAGTVLNDANNQAKATFDLAKNLADGKGAADGTDLKIDNKVVRVPYVGVDKDNLAEFSKK
B3: Modified protein 8: 3M-GGBP (SEQ ID NO:3) with substitution N226G (protein)
chain: ADTRIGVTIYKYDDNFMSVVRKAIEQDAKAAPDVQLLMNDSQNDQSKQNDQIDVLLAKGVKALAINLVDPAAAGTVIEKARGQNVPVVFFNKEPSRKALDSYDKAYYVGTDSKESGIIQGDLIAKHWAANQGWDLNKDGQIQFVLLKGCPGHPDAEARTTYVIKELNDKGIKTEQLQLDTAMWDTAQAKDKMDAWLSGPNANKIEVVIANNDRMAMGAVEALKAHGKSSIPVFGVDASPEALALVKSGALAGTVLNDANNQAKATFDLAKNLADGKGAADGTNWKIDNKVVRVPYVGVDKDNLAEFSKK
B4: Modified protein 5: 3M-GGBP (SEQ ID NO:3) with substitutions Q175E, Q177H, L178M (protein)
chain: ADTRIGVTIYKYDDNFMSVVRKAIEQDAKAAPDVQLLMNDSQNDQSKQNDQIDVLLAKGVKALAINLVDPAAAGTVIEKARGQNVPVVFFNKEPSRKALDSYDKAYYVGTDSKESGIIQGDLIAKHWAANQGWDLNKDGQIQFVLLKGCPGHPDAEARTTYVIKELNDKGIKTEELHMDTAMWDTAQAKDKMDAWLSGPNANKIEVVIANNDRMAMGAVEALKAHNKSSIPVFGVDASPEALALVKSGALAGTVLNDANNQAKATFDLAKNLADGKGAADGTNWKIDNKVVRVPYVGVDKDNLAEFSKK
B5: Modified protein 10: 3M-GGBP (SEQ ID NO:3) with substitutions N259E, N260S (protein)
chain: ADTRIGVTIYKYDDNFMSVVRKAIEQDAKAAPDVQLLMNDSQNDQSKQNDQIDVLLAKGVKALAINLVDPAAAGTVIEKARGQNVPVVFFNKEPSRKALDSYDKAYYVGTDSKESGIIQGDLIAKHWAANQGWDLNKDGQIQFVLLKGCPGHPDAEARTTYVIKELNDKGIKTEQLQLDTAMWDTAQAKDKMDAWLSGPNANKIEVVIANNDRMAMGAVEALKAHNKSSIPVFGVDASPEALALVKSGALAGTVLNDAESQAKATFDLAKNLADGKGAADGTNWKIDNKVVRVPYVGVDKDNLAEFSKK
B6: Modified protein 6: 3M-GGBP (SEQ ID NO:3) with substitutions Q175I, Q177E (protein)
chain: ADTRIGVTIYKYDDNFMSVVRKAIEQDAKAAPDVQLLMNDSQNDQSKQNDQIDVLLAKGVKALAINLVDPAAAGTVIEKARGQNVPVVFFNKEPSRKALDSYDKAYYVGTDSKESGIIQGDLIAKHWAANQGWDLNKDGQIQFVLLKGCPGHPDAEARTTYVIKELNDKGIKTEILELDTAMWDTAQAKDKMDAWLSGPNANKIEVVIANNDRMAMGAVEALKAHNKSSIPVFGVDASPEALALVKSGALAGTVLNDANNQAKATFDLAKNLADGKGAADGTNWKIDNKVVRVPYVGVDKDNLAEFSKK
B7: Modified protein 13: 3M-GGBP (SEQ ID NO:3) with substitution N302T (protein)
chain: ADTRIGVTIYKYDDNFMSVVRKAIEQDAKAAPDVQLLMNDSQNDQSKQNDQIDVLLAKGVKALAINLVDPAAAGTVIEKARGQNVPVVFFNKEPSRKALDSYDKAYYVGTDSKESGIIQGDLIAKHWAANQGWDLNKDGQIQFVLLKGCPGHPDAEARTTYVIKELNDKGIKTEQLQLDTAMWDTAQAKDKMDAWLSGPNANKIEVVIANNDRMAMGAVEALKAHNKSSIPVFGVDASPEALALVKSGALAGTVLNDANNQAKATFDLAKNLADGKGAADGTNWKIDNKVVRVPYVGVDKDTLAEFSKK
B8: Modified protein 7: 3M-GGBP (SEQ ID NO:3) with substitutions G198S, P199S, N200K (protein)
chain: ADTRIGVTIYKYDDNFMSVVRKAIEQDAKAAPDVQLLMNDSQNDQSKQNDQIDVLLAKGVKALAINLVDPAAAGTVIEKARGQNVPVVFFNKEPSRKALDSYDKAYYVGTDSKESGIIQGDLIAKHWAANQGWDLNKDGQIQFVLLKGCPGHPDAEARTTYVIKELNDKGIKTEQLQLDTAMWDTAQAKDKMDAWLSSSKANKIEVVIANNDRMAMGAVEALKAHNKSSIPVFGVDASPEALALVKSGALAGTVLNDANNQAKATFDLAKNLADGKGAADGTNWKIDNKVVRVPYVGVDKDNLAEFSKK
B9: Modified protein 4: 3M-GGBP (SEQ ID NO:3) with substitution N130D (protein)
chain: ADTRIGVTIYKYDDNFMSVVRKAIEQDAKAAPDVQLLMNDSQNDQSKQNDQIDVLLAKGVKALAINLVDPAAAGTVIEKARGQNVPVVFFNKEPSRKALDSYDKAYYVGTDSKESGIIQGDLIAKHWAADQGWDLNKDGQIQFVLLKGCPGHPDAEARTTYVIKELNDKGIKTEQLQLDTAMWDTAQAKDKMDAWLSGPNANKIEVVIANNDRMAMGAVEALKAHNKSSIPVFGVDASPEALALVKSGALAGTVLNDANNQAKATFDLAKNLADGKGAADGTNWKIDNKVVRVPYVGVDKDNLAEFSKK
B10: Modified protein 9: 3M-GGBP (SEQ ID NO:3) with substitution N226K (protein)
chain: ADTRIGVTIYKYDDNFMSVVRKAIEQDAKAAPDVQLLMNDSQNDQSKQNDQIDVLLAKGVKALAINLVDPAAAGTVIEKARGQNVPVVFFNKEPSRKALDSYDKAYYVGTDSKESGIIQGDLIAKHWAANQGWDLNKDGQIQFVLLKGCPGHPDAEARTTYVIKELNDKGIKTEQLQLDTAMWDTAQAKDKMDAWLSGPNANKIEVVIANNDRMAMGAVEALKAHKKSSIPVFGVDASPEALALVKSGALAGTVLNDANNQAKATFDLAKNLADGKGAADGTNWKIDNKVVRVPYVGVDKDNLAEFSKK
B11: Modified protein 3: 3M-GGBP (SEQ ID NO:3) with substitutions G82E, Q83K, N84D (protein)
chain: ADTRIGVTIYKYDDNFMSVVRKAIEQDAKAAPDVQLLMNDSQNDQSKQNDQIDVLLAKGVKALAINLVDPAAAGTVIEKAREKDVPVVFFNKEPSRKALDSYDKAYYVGTDSKESGIIQGDLIAKHWAANQGWDLNKDGQIQFVLLKGCPGHPDAEARTTYVIKELNDKGIKTEQLQLDTAMWDTAQAKDKMDAWLSGPNANKIEVVIANNDRMAMGAVEALKAHNKSSIPVFGVDASPEALALVKSGALAGTVLNDANNQAKATFDLAKNLADGKGAADGTNWKIDNKVVRVPYVGVDKDNLAEFSKK
B12: Modified protein 11: 3M-GGBP (SEQ ID NO:3) with substitutions K270Y, N271S (protein)
chain: ADTRIGVTIYKYDDNFMSVVRKAIEQDAKAAPDVQLLMNDSQNDQSKQNDQIDVLLAKGVKALAINLVDPAAAGTVIEKARGQNVPVVFFNKEPSRKALDSYDKAYYVGTDSKESGIIQGDLIAKHWAANQGWDLNKDGQIQFVLLKGCPGHPDAEARTTYVIKELNDKGIKTEQLQLDTAMWDTAQAKDKMDAWLSGPNANKIEVVIANNDRMAMGAVEALKAHNKSSIPVFGVDASPEALALVKSGALAGTVLNDANNQAKATFDLAYSLADGKGAADGTNWKIDNKVVRVPYVGVDKDNLAEFSKK

Experiment: Circular dichroism melting temperature (Tm), CD signal at 222 nm versus temperature
Type: physicochemical
Set-up: key to + ΔTm / − ΔTm: Tm difference in °C from reference 3M-GGBP
Conditions: for increase of Tm over the reference protein (in words): among the thirteen modified GGBPs, reference 3M-GGBP; for + ΔTm: increase of Tm over reference protein 3M-GGBP; for + ΔTm / − ΔTm: CD, PBS; for Previously Tested, See - Table II: ΔTm: repeated from Table II, modified 3M-GGBP versus 3M-GGBP; for − ΔTm: decrease of Tm versus reference protein 3M-GGBP
Protocol: Circular Dichroism (CD) spectra were preformed on a JASCO J-810. Samples of purified fluorophore-labeled proteins were exhaustively dialyzed into phosphate buffered saline (PBS) (comprised of 137 mM NaCl, 10 mM phosphate and 2.7 mM KCl, pH 7.4). The loss of secondary structure of 3M-GGBP and W183C-GGBP was observed by recording the CD signal at 222 nm as a function of temperature. During the experiment, the temperature of the sample changed at a rate of ˜1° C./min between 20 and 80° C. The apparent melting temperature at the midpoint of the transition (Tm) was obtained by fitting the experimental data points (CD signal versus temperature) with a sigmoidal function.

Molecule	increase of Tm over the reference protein (in words)	+ ΔTm	Previously Tested, See - Table II: ΔTm	− ΔTm
B1	greatest increase of Tm	1	+1	
B2			−3.7	3.7
B3		0.9		
B4	greatest increase of Tm	3		
B5	greatest increase of Tm	3.6		
B6				0.3
B7				0.2
B8		0.5	+0.5	
B9			−5.2	5.2
B10		0.3		
B11	greatest increase of Tm	1.5		
B12			−3.5	3.5

Reference: US8778635B2, “Thermostable proteins and methods making and using thereof” (Becton, Dickinson and Company, priority 2006, dated 2014)
